The values that follow come from paper PMC9410543.

This assay deals with GLuc1-ALIX (UniProt Q8WUM4). Put plainly: protein-fragment complementation assay (split Gaussia luciferase, GLuc2 bait / GLuc1 prey). To be noted: parent: est. 7.4; read off a plot.
Chain of GLuc1-ALIX (Q8WUM4 whole entry, the tested form may be a part): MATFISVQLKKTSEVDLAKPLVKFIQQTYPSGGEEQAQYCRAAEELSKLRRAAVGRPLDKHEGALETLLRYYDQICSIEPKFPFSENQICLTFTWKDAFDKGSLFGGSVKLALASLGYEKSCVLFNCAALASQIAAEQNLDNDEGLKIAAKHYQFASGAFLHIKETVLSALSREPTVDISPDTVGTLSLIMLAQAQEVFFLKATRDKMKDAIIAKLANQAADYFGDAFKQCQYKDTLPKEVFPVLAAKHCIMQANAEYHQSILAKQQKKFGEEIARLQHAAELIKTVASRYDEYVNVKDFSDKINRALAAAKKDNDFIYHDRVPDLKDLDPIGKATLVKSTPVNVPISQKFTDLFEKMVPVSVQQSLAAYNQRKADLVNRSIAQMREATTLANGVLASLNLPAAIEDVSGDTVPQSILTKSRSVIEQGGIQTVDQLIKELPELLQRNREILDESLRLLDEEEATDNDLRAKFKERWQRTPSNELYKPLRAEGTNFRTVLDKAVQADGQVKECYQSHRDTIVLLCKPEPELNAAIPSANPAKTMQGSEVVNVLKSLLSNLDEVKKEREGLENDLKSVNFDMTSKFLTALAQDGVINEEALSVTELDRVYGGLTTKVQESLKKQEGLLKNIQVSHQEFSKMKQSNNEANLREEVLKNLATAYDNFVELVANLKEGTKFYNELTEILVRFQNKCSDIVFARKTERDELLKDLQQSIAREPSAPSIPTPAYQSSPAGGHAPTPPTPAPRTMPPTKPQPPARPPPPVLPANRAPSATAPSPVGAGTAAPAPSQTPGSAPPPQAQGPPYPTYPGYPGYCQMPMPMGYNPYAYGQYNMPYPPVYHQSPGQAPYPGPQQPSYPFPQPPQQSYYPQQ

In the case of GLuc2-pX Y800A; K801A; E802A; L803A, the response (Log2 normalized LU) turned out to be 1.5.
